Results: US20100093014A1, “SCREENING FOR BONE ANABOLIC FACTORS” (NORDIC BIOSCIENCE IMAGING A/S, priority 2007, published 2010)

System: TCF/LEF response elements
Experiment: TOPflash luciferase reporter system (TCF/LEF response elements) in UMR-106 cells
Assay type: cell-based, rat
Text: We transiently infected UMR-106 cells (a rat sarcoma derived cell line) with a luciferase reporter system TOPflash containing 8 TCF/LEF response elements placed in the promoter region of the luciferase reporter gene.
To investigate the effect of secreted signals from osteoclasts we collected conditioned medium from osteoclasts cultured either on bone or on plastic, and compared their ability to induce activation of cells transiently transfected with the TCF/LEF reporter system to that of non-conditioned osteoclast culture medium. The cells were then treated for 24 hours with either control compounds, vehicle or the different conditioned media, after which the cells were lysed and the Luciferase activity was measured by a […] assay.

Molecule	TCF/LEF activation (luciferase activity) (treated for 24 hours)	inhibition of TCF/LEF activation induced by conditioned medium from osteoclasts on bone (24 hours)	inhibition of TCF/LEF activation induced by signal from non-resorbing osteoclasts on plastic (24 hours)	inhibition of Wnt3A-induced TCF/LEF activation (activation by Wnt3A)
Wnt3A: positive control for the TCF/LEF luciferase reporter (protein, UniProt P56704 19-352, looked up) Protein Wnt-3a: SYPIWWSLAVGPQYSSLGSQPILCASIPGLVPKQLRFCRNYVEIMPSVAEGIKIGIQECQHQFRGRRWNCTTVHDSLAIFGPVLDKATRESAFVHAIASAGVAFAVTRSCAEGTAAICGCSSRHQGSPGKGWKWGGCSEDIEFGGMVSREFADARENRPDARSAMNRHNNEAGRQAIASHMHLKCKCHGLSGSCEVKTCWWSQPDFRAIGDFLKDKYDSASEMVVEKHRESRGWVETLRPRYTYFKVPTERDLVYYEASPNFCEPNPETGSFGTRDRTCNVSSHGIDGCDLLCCGRGHNARAERRREKCRCVFHWCCYVSCQECTRVYDVHTCK	induces a strong activation			
DKK1: Wnt inhibitor (protein, UniProt O94907 32-266, looked up) Dickkopf-related protein 1: TLNSVLNSNAIKNLPPPLGGAAGHPGSAVSAAPGILYPGGNKYQTIDNYQPYPCAEDEECGTDEYCASPTRGGDAGVQICLACRKRRKRCMRHAMCCPGNYCKNGICVSSDQNHFRGEIEETITESFGNDHSTLDGYSRRTTLSSKMYHTKGQEGSVCLRSSDCASGLCCARHFWSKICKPVLKEGQVCTKHRRKGSHGLEIFQRCYCGEGLSCRIQKDHHQASNSSRLHTCQRH		inhibited	again was inhibited	inhibits this activation
